Source: patent US20070093443A1 (CATALYST BIOSCIENCES, published 2007)
Substitutions are numbered along the chain they refer to. Names may count otherwise.

T1: Complement C2 (human) (human, UniProt P06681 21-752)
T1 sequence: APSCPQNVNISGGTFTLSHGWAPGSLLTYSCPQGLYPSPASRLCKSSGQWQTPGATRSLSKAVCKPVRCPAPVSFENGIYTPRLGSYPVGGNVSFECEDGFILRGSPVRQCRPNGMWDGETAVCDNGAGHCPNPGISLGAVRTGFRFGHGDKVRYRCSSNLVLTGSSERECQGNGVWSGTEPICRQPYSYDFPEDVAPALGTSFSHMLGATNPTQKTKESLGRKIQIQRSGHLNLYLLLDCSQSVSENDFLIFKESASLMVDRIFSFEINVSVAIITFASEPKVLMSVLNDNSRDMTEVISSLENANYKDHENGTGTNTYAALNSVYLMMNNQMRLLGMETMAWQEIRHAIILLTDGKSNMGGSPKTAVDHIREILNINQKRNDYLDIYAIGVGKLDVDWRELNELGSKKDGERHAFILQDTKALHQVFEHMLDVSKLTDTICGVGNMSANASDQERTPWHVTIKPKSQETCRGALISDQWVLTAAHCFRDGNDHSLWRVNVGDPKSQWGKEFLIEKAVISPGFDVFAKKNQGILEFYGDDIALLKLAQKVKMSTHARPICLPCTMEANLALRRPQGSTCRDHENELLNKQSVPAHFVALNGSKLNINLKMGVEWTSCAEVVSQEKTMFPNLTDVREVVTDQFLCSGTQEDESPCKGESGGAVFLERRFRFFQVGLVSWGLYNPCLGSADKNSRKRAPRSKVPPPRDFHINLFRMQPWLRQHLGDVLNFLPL

T2: alpha-2 macroglobulin (in human plasma) (human, UniProt P01023 24-1474)
T2 construct: Not purified: the endogenous protein of the plasma
T2 sequence (looked up): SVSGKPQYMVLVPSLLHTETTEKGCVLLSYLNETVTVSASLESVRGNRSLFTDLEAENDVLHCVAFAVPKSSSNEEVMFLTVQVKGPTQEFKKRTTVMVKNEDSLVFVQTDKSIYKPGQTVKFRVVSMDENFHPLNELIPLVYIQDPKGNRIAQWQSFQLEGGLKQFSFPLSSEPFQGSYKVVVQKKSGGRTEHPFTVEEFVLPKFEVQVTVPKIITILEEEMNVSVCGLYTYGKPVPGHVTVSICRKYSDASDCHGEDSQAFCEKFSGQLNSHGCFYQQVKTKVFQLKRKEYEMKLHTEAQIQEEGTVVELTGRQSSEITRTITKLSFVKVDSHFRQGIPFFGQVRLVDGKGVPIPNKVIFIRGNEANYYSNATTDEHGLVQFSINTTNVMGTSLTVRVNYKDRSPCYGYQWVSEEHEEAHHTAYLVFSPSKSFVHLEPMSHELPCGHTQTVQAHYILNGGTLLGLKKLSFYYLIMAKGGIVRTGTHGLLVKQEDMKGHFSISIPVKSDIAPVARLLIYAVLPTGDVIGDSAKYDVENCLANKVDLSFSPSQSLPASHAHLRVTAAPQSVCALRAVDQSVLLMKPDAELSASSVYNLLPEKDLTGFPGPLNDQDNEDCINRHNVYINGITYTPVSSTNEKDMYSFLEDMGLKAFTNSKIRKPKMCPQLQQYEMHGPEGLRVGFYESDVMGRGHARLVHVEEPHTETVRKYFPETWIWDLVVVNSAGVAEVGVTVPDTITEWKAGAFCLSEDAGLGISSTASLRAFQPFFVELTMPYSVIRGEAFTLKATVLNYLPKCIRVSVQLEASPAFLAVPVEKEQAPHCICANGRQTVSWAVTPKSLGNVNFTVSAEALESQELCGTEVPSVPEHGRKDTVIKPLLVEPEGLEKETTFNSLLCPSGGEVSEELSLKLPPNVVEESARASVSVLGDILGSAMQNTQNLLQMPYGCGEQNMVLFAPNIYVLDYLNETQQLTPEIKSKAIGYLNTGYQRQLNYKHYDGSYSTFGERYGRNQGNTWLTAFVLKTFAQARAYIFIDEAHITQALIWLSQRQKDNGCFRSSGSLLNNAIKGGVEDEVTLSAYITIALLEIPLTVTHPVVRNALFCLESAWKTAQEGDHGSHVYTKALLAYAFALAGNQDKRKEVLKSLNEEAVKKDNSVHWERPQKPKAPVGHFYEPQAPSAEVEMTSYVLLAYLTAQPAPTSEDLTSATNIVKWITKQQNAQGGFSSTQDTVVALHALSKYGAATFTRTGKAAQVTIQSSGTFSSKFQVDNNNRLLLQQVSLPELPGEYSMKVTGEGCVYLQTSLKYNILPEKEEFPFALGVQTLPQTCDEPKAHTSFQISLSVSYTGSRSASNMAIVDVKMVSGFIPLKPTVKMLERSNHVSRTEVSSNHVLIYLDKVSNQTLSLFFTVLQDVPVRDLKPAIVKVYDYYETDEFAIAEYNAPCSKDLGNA

B1: modified MT-SP1 CB155 (Y146D/K224F) protease domain (enzyme)
chain: VVGGTDADEGEWPWQVSLHALGQGHICGASLISPNWLVSAAHCYIDDRGFRYSDPTQWTAFLGLHDQSQRSAPGVQERRLKRIISHPFFNDFTFDYDIALLELEKPAEYSSMVRPICLPDASHVFPAGKAIWVTGWGHTQDGGTGALILQKGEIRVINQTTCENLLPQQITPRMMCVGFLSGGVDSCQGDSGGPLSSVEADGRIFQAGVVSWGDGCAQRNFPGVYTRLPLFRDWIKENTGV
B2: modified MT-SP1 CB490 (I41T/Y146E/G151L/Q175D/K224R) protease domain (enzyme)
chain: B1 chain with I26T, D141E, G145L, Q169D, F221R

How the values were obtained:
Complement C2 (human) = target: T1, Complement C2 (human); test: cell-based or functional assay
M84R ecotin = target: T3, M84R ecotin (UniProt P23827 21-162); test: active site titration of purified CB155 with M84R ecotin, residual Ac-RQAR-AMC activity
T3 construct: Position 84 is probably counted on mature ecotin, not on the precursor entry; also called ecotin M84R
Protocol: The purified protein was assayed for specific activity, purity, and endotoxin levels. The specific activity or amount of active protease in each prep was determined by active site titration by incubation with an inhibitor that binds in the active site of the functional protease at varying concentrations followed by addition to a fluorogenic substrate for measurement of substrate proteolysis. The amount of active enzyme was calculated from a plot of the residual protease activity against the inhibitor concentration where the intercept corresponds to the concentration of active protease. […] Enzyme activity was monitored at 30° C. in the presence of 40 μM Ac-RQAR-AMC in assay buffer containing 50 mM Tris pH 8.0, 50 mM NaCl, and 0.01% Tween-20 (for trypsin activity, 10 mM CaCl2 was added) on a Gemini XPS spectrafluorimeter (Excitation: 380 nm; Emission: 450 nm; Cut-off: 435 mn). Purity of the protein preparation was assessed by resolution of the protein product on SDS-PAGE followed by staining with Coomassie Blue. […] The level of endotoxin in each prep was determined by Liumlus Amebocyte Lysate Chromo-LAL assay (Associated of Cape Cod) according to the manufacturer's protocol with the following modifications. […]

[1] = target: T2, alpha-2 macroglobulin (in human plasma); test: Ac-RQAR-AMC activity of protease after 5 min in human citrated plasma, with and without M84R ecotin
Protocol: In addition, the percent protease unbound by alpha-2 macroglobulin (a2M) also was determined. Inactivation of a protease by alpha-2 macroglobulin traps the protease in a complex where it is still able to turn over small fluorescent substrates, but unable to access large protein substrates. This property of alpha-2 macroglobulin complicates the assessment of a proteases activity in plasma. To determine the actual activity of the free, uncomplexed protease in plasma, a two step measurement is required. First, the sample's activity on fluorescent substrates is measured. […] The percent unbound by alpha-2 macroglobulin activity is the percentage of the plasma residual activity that is inhibited by the addition of the ecotin. Briefly, in a 0.2 mL PCR tube, 1 μL 10× protease was mixed with 9 μL human plasma in citrate (Innovative Research). A uninhibted control also was prepeared containing 1 μL 10× protease mixed with 9 μL PBST. The mixtures were incubated for 5 minutes at 37° C. The samples were diluted 250 fold in PBST and stored on ice. Two 50 μL aliquots for each sample were transferred to an opaque assay plate (Costar #3694) containing 2 μL PBST or 2 μL 520 nM M84R ecotin. The plates were incubated 10 minutes at room temperature. Five microliters 0.4 mM Ac-RQAR-AMC substrate was added and the fluorescence was measured over time with a SpectraMax M5 spectrafluorometer (Molecular Devices) set to read every 20 seconds for 30 minutes at 30° C. (Ex: 380 nm, EM: 450 nm, Cut-off: 435 nm). The percent unbound by alpha-2 macroglobulin was calculated with the following formula: (1-([(Protease in plasma/Protease in PBST)−(Protease in plasma+ecotin/Protease in PBST)]/(Protease in plasma/Protease in PBST)))*100.

| Binder | IC50 based on gel densitometry of C2 cleavage products (purified C2) (Complement C2 (human)) | IC50 for hemolysis in C2 depleted serum supplemented with protease-treated C2 (Complement C2 (human)) | IC50 of the proteases for cleavage of C2 (Western blot densitometry, 5% human plasma, 1 h 37 C) (Complement C2 (human)) | binding result (M84R ecotin) | % Unbound by a2M [1] |
| --- | --- | --- | --- | --- | --- |
| B1 | 2.2 nM | 17 nM | 18.4 nM | binds |  |
| B2 |  |  |  |  | 0% |
